Columns and labels:
[1] = molecular target: human TNFR1 (soluble recombinant protein) (human) (UniProt P19438); assay: phage ELISA on plate coated with 1 nM TNFR1, anti-M13-HRP; phage treated 1 h at room temperature with 100 µg/ml trypsin; phage input 2.82E+09
[2] = molecular target: human TNFR1 (soluble recombinant protein) (human) (UniProt P19438); assay: phage ELISA on plate coated with 1 nM TNFR1, anti-M13-HRP; 0 µg/ml trypsin; phage input 7.05E+08
[3] = molecular target: human TNFR1 (soluble recombinant protein) (human) (UniProt P19438); assay: phage ELISA on plate coated with 1 nM TNFR1, anti-M13-HRP; phage treated 1 h at room temperature with 1 mg/ml trypsin; phage input 1.41E+09
[4] = molecular target: human TNFR1 (soluble recombinant protein) (human) (UniProt P19438); assay: phage ELISA on plate coated with 1 nM TNFR1, anti-M13-HRP; 0 µg/ml trypsin; phage input 2.26E+10
[5] = molecular target: human TNFR1 (soluble recombinant protein) (human) (UniProt P19438); assay: phage ELISA on plate coated with 1 nM TNFR1, anti-M13-HRP; phage treated 1 h at room temperature with 1 mg/ml trypsin; phage input 5.64E+09
[6] = molecular target: human TNFR1 (soluble recombinant protein) (human) (UniProt P19438); assay: phage ELISA on plate coated with 1 nM TNFR1, anti-M13-HRP; phage treated 1 h at room temperature with 100 µg/ml trypsin; phage input 4.51E+10
[7] = molecular target: human TNFR1 (soluble recombinant protein) (human) (UniProt P19438); assay: phage ELISA on plate coated with 1 nM TNFR1, anti-M13-HRP; phage treated 1 h at room temperature with 10 µg/ml trypsin; phage input 1.13E+10
[8] = molecular target: human TNFR1 (soluble recombinant protein) (human) (UniProt P19438); assay: phage ELISA on plate coated with 1 nM TNFR1, anti-M13-HRP; phage treated 1 h at room temperature with 10 µg/ml trypsin; phage input 3.52E+08
[9] = molecular target: human TNFR1 (soluble recombinant protein) (human) (UniProt P19438); assay: phage ELISA on plate coated with 1 nM TNFR1, anti-M13-HRP; 0 µg/ml trypsin; phage input 5.64E+09
[10] = molecular target: human TNFR1 (soluble recombinant protein) (human) (UniProt P19438); assay: phage ELISA on plate coated with 1 nM TNFR1, anti-M13-HRP; phage treated 1 h at room temperature with 10 µg/ml trypsin; phage input 2.82E+09
[11] = molecular target: human TNFR1 (soluble recombinant protein) (human) (UniProt P19438); assay: phage ELISA on plate coated with 1 nM TNFR1, anti-M13-HRP; phage treated 1 h at room temperature with 10 µg/ml trypsin; phage input 4.51E+10
[12] = molecular target: human TNFR1 (soluble recombinant protein) (human) (UniProt P19438); assay: phage ELISA on plate coated with 1 nM TNFR1, anti-M13-HRP; phage treated 1 h at room temperature with 100 µg/ml trypsin; phage input 1.41E+09
[13] = molecular target: human TNFR1 (soluble recombinant protein) (human) (UniProt P19438); assay: phage ELISA on plate coated with 1 nM TNFR1, anti-M13-HRP; phage treated 1 h at room temperature with 100 µg/ml trypsin; phage input 2.26E+10
[14] = molecular target: human TNFR1 (soluble recombinant protein) (human) (UniProt P19438); assay: phage ELISA on plate coated with 1 nM TNFR1, anti-M13-HRP; phage treated 1 h at room temperature with 10 µg/ml trypsin; phage input 7.05E+08
[15] = molecular target: human TNFR1 (soluble recombinant protein) (human) (UniProt P19438); assay: phage ELISA on plate coated with 1 nM TNFR1, anti-M13-HRP; phage treated 1 h at room temperature with 100 µg/ml trypsin; phage input 1.13E+10
[16] = molecular target: human TNFR1 (soluble recombinant protein) (human) (UniProt P19438); assay: phage ELISA on plate coated with 1 nM TNFR1, anti-M13-HRP; phage treated 1 h at room temperature with 1 mg/ml trypsin; phage input 2.26E+10
[17] = molecular target: human TNFR1 (soluble recombinant protein) (human) (UniProt P19438); assay: phage ELISA on plate coated with 1 nM TNFR1, anti-M13-HRP; phage treated 1 h at room temperature with 100 µg/ml trypsin; phage input 5.64E+09
[18] = molecular target: human TNFR1 (soluble recombinant protein) (human) (UniProt P19438); assay: phage ELISA on plate coated with 1 nM TNFR1, anti-M13-HRP; phage treated 1 h at room temperature with 100 µg/ml trypsin; phage input 7.05E+08
[19] = molecular target: human TNFR1 (soluble recombinant protein) (human) (UniProt P19438); assay: phage ELISA on plate coated with 1 nM TNFR1, anti-M13-HRP; 0 µg/ml trypsin; phage input 3.52E+08
[20] = molecular target: human TNFR1 (soluble recombinant protein) (human) (UniProt P19438); assay: phage ELISA on plate coated with 1 nM TNFR1, anti-M13-HRP; 0 µg/ml trypsin; phage input 1.41E+09
[21] = molecular target: human TNFR1 (soluble recombinant protein) (human) (UniProt P19438); assay: phage ELISA on plate coated with 1 nM TNFR1, anti-M13-HRP; phage treated 1 h at room temperature with 10 µg/ml trypsin; phage input 1.41E+09
[22] = molecular target: human TNFR1 (soluble recombinant protein) (human) (UniProt P19438); assay: phage ELISA on plate coated with 1 nM TNFR1, anti-M13-HRP; phage treated 1 h at room temperature with 10 µg/ml trypsin; phage input 2.26E+10
[23] = molecular target: human TNFR1 (soluble recombinant protein) (human) (UniProt P19438); assay: phage ELISA on plate coated with 1 nM TNFR1, anti-M13-HRP; phage treated 1 h at room temperature with 100 µg/ml trypsin; phage input 3.52E+08
[24] = molecular target: human TNFR1 (soluble recombinant protein) (human) (UniProt P19438); assay: phage ELISA on plate coated with 1 nM TNFR1, anti-M13-HRP; 0 µg/ml trypsin; phage input 1.13E+10
[25] = molecular target: human TNFR1 (soluble recombinant protein) (human) (UniProt P19438); assay: phage ELISA on plate coated with 1 nM TNFR1, anti-M13-HRP; phage treated 1 h at room temperature with 1 mg/ml trypsin; phage input 7.05E+08
[26] = molecular target: human TNFR1 (soluble recombinant protein) (human) (UniProt P19438); assay: phage ELISA on plate coated with 1 nM TNFR1, anti-M13-HRP; phage treated 1 h at room temperature with 1 mg/ml trypsin; phage input 4.51E+10
[27] = molecular target: human TNFR1 (soluble recombinant protein) (human) (UniProt P19438); assay: phage ELISA on plate coated with 1 nM TNFR1, anti-M13-HRP; phage treated 1 h at room temperature with 1 mg/ml trypsin; phage input 1.13E+10
[28] = molecular target: human TNFR1 (soluble recombinant protein) (human) (UniProt P19438); assay: phage ELISA on plate coated with 1 nM TNFR1, anti-M13-HRP; 0 µg/ml trypsin; phage input 2.82E+09
[29] = molecular target: human TNFR1 (soluble recombinant protein) (human) (UniProt P19438); assay: phage ELISA on plate coated with 1 nM TNFR1, anti-M13-HRP; phage treated 1 h at room temperature with 1 mg/ml trypsin; phage input 3.52E+08
[30] = molecular target: human TNFR1 (soluble recombinant protein) (human) (UniProt P19438); assay: phage ELISA on plate coated with 1 nM TNFR1, anti-M13-HRP; phage treated 1 h at room temperature with 10 µg/ml trypsin; phage input 5.64E+09
[31] = molecular target: human TNFR1 (soluble recombinant protein) (human) (UniProt P19438); assay: phage ELISA on plate coated with 1 nM TNFR1, anti-M13-HRP; phage treated 1 h at room temperature with 1 mg/ml trypsin; phage input 2.82E+09
[32] = molecular target: human TNFR1 (soluble recombinant protein) (human) (UniProt P19438); assay: phage ELISA on plate coated with 1 nM TNFR1, anti-M13-HRP; 0 µg/ml trypsin; phage input 4.51E+10
TNFR1-FC fusion = molecular target: T1, TNFR1-FC fusion (human, UniProt P19438 22-211); assay: human TNFR1 receptor binding assay: inhibition of the binding of TNF-alpha (10 ng/ml) to bead-captured TNFR1-Fc; four replicates
T1 construct: not shown: Fc part not described (captured with goat anti-human IgG (H&L))
T1 sequence (looked up): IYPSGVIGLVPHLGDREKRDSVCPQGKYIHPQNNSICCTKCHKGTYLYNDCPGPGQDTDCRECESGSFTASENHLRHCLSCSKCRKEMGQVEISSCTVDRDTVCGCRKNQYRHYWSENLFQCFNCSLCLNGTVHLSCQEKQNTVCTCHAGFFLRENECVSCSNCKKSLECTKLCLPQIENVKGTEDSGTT

DOM1h-131 phage showed a phage ELISA signal [1] of 0.141, a phage ELISA signal [2] of 0.705 and a phage ELISA signal [3] of 0.089. The phage ELISA signal [4] was 0.944, the phage ELISA signal [5] was 0.133 and the phage ELISA signal [6] was 0.418. It also gave a phage ELISA signal [7] of 0.86, a phage ELISA signal [8] of 0.213 and a phage ELISA signal [9] of 0.962. It also gave a phage ELISA signal [10] of 0.573, a phage ELISA signal [11] of 0.784 and a phage ELISA signal [12] of 0.115. It also gave a phage ELISA signal [13] of 0.377, a phage ELISA signal [14] of 0.286 and a phage ELISA signal [15] of 0.284. For the same molecule, the phage ELISA signal [16] was 0.229, the phage ELISA signal [17] was 0.196 and the phage ELISA signal [18] was 0.084. It also gave a phage ELISA signal [19] of 0.577, a phage ELISA signal [20] of 0.85 and a phage ELISA signal [21] of 0.409. The phage ELISA signal [22] was 0.802, the phage ELISA signal [23] was 0.084 and the phage ELISA signal [24] was 0.949. For the same molecule, the phage ELISA signal [25] was 0.084, the phage ELISA signal [26] was 0.284 and the phage ELISA signal [27] was 0.183. The phage ELISA signal [28] was 0.946, the phage ELISA signal [29] was 0.08 and the phage ELISA signal [30] was 0.695. The phage ELISA signal [31] was 0.114 and the phage ELISA signal [32] was 0.916.

B1: DOM1h-131-202 (other)
VH: EVQLLESGGGLVQPGGSLRLSCAASGFTFAHETMVWVRQAPGKGLEWVSHIPPDGQDPFYADSVKGRFTISRDNSKNTLYLQMNSLRAEDTAVYYCALLPKRGPWFDYWGQGTLVTVSS
notes: also called GSK1922567A
In the case of B1, the “IC50 (read off the curve)” value (TNFR1-FC fusion) is reported as roughly 0.2 nM.
